Reference: US6706266, “Oncostatin M antagonists” (SmithKline Beecham Corporation)
Where a chain is given by its changes, count along the chain named. Names may count otherwise. “And” between values parts separate entries of the source, which are not always exact repeats. Identical values can stand only once.

T1: oncostatin M (hOSM, mature) (Homo sapiens) (UniProt P13725)
T1 sequence: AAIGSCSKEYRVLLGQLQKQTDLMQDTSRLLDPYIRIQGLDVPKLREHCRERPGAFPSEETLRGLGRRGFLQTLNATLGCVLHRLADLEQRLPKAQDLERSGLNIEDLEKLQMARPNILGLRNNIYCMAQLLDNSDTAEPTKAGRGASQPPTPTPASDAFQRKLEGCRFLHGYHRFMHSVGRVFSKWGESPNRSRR

T2: gp130 on HepG2 B6 cells (UniProt P40189 23-918, limits assumed)
T2 sequence (looked up): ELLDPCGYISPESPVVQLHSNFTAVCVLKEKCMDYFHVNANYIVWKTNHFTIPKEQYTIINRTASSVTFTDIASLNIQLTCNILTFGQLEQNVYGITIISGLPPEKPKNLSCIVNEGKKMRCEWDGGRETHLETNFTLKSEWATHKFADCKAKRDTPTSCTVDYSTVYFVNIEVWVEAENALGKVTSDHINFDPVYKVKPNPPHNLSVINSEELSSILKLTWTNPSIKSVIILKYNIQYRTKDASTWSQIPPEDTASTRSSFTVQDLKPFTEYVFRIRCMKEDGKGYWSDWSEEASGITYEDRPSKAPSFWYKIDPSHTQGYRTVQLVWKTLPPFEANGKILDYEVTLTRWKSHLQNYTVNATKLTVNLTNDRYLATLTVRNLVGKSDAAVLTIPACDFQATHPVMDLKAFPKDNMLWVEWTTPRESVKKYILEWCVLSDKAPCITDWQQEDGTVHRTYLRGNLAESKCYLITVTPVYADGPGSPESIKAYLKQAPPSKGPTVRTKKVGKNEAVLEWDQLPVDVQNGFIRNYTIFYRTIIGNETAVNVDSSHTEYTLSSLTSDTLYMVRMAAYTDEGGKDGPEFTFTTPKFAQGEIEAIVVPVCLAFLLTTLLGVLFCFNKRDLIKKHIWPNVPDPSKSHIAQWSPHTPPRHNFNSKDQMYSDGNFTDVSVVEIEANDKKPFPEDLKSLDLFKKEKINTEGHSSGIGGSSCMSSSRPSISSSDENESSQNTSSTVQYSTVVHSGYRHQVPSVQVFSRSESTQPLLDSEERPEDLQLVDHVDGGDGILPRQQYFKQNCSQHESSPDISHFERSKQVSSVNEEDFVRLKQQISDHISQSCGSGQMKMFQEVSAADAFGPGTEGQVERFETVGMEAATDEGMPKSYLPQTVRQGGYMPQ

T3: oncostatin M (hOSM, mature) (Homo sapiens, UniProt P13725 SEQ:26-221)
T3 sequence: T1 sequence

T4: gp130-Fc fusion protein (human, UniProt P40189 23-619)
T4 construct: extracellular domain; not shown: Fc fragment of human IgG1
T4 sequence (looked up): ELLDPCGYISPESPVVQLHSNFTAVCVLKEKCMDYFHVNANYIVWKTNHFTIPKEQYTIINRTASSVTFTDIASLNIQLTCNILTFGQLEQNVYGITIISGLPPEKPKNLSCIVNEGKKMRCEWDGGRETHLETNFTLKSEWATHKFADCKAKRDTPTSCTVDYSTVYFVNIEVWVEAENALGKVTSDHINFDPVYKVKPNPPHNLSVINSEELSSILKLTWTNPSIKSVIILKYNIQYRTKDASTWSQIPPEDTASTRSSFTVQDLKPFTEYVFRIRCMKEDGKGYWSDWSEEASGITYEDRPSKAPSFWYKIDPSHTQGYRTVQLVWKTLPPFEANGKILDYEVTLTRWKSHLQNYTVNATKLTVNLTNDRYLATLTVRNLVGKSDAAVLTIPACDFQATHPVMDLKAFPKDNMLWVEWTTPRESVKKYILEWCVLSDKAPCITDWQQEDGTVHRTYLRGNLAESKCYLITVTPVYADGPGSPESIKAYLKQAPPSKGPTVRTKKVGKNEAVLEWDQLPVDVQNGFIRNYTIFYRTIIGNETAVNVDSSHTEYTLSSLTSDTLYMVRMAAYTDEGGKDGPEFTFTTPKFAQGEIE

B1: OSM-GST mutant Q25A (ligand, not shown: a dimerising Fc or GST; large carriers; small tags and cut ends)
chain: T1 sequence with Q25A
notes: Alanine mutant of m4; also called (26)Q25A; 26 Q25A
B2: OSM-GST mutant Q130A (ligand, not shown: a dimerising Fc or GST; large carriers; small tags and cut ends)
chain: T1 sequence with Q130A
notes: Alanine mutant of m4; also called (25)Y130A; 25 Q130A
B3: OSM-GST mutant Y10A (ligand, not shown: a dimerising Fc or GST; large carriers; small tags and cut ends)
chain: T1 sequence with Y10A
notes: Alanine mutant of m4; also called (4)Y10A; 4 Y10A
B4: OSM-GST mutant R122A (ligand, not shown: a dimerising Fc or GST; large carriers; small tags and cut ends)
chain: T1 sequence with R122A
notes: Alanine mutant of m4; also called (21)R122A; 21 R122A
B5: OSM-GST mutant R11A (ligand, not shown: a dimerising Fc or GST; large carriers; small tags and cut ends)
chain: T1 sequence with R11A
notes: Alanine mutant of m4; also called (5)R11A; 5 R11A
B6: OSM-GST mutant T21A (ligand, not shown: a dimerising Fc or GST; large carriers; small tags and cut ends)
chain: T1 sequence with T21A
notes: Alanine mutant of m4; also called (14)T21A; 14 T21A
B7: OSM-GST mutant Y126A (ligand, not shown: a dimerising Fc or GST; large carriers; small tags and cut ends)
chain: T1 sequence with Y126A
notes: Alanine mutant of m4; also called (24)Y126A; 24 Y126A
B8: OSM-GST mutant S7A (ligand, not shown: a dimerising Fc or GST; large carriers; small tags and cut ends)
chain: T1 sequence with S7A
notes: Alanine mutant of m4; also called (1)S7A; 1 S7A
B9: ADR147 (aptamer raised to CD95 ligand) (ssRNA)
RNA: GGGAGGACGAUGCGGUUAUACUAAGCUGCGGUUAGCGACAGCCCUCCCUAGCGCCUCAGACGACUCGCCCGA
modifications: 2'-F pyrimidines

The molecules below were run against T1, oncostatin M (hOSM, mature) (Homo sapiens) (assay: filter). Conditions: 2'-F pyrimidines; no affinity at any concentration tested.

Molecule	Kd [µM]
GGGAGGACGAUGCGGNNNNNNNNNNNNNNNNNNNNNNNNNNNNNNNNNNNNNNNNCCGCAUCGUCCUCCC [40N7 starting random RNA pool]	> 10

What follows are molecules tested against T2, gp130 on HepG2 B6 cells (assay: cell-based or functional assay). Conditions: not given.

Molecule	sPAP HepG2 B6 assay: Expt 1 % (EC50 as % of wild type EC50) [%]	sPAP HepG2 B6 assay: Expt 1 EC50 [µg/mL]	sPAP HepG2 B6 assay: Expt 2 % (EC50 as % of wild type EC50) [%]	sPAP HepG2 B6 assay: Expt 2 EC50 [µg/mL]	sPAP HepG2 B6 assay: Mean % of wild type EC50 [%]	sPAP HepG2 B6 assay: Expt 3 % (EC50 as % of wild type EC50) [%]	sPAP HepG2 B6 assay: Expt 3 EC50 [µg/mL]
B1	55	0.0133	41	0.013	48	–	–
B2	52	0.0125	26	0.0082	39	–	–
B3	134	0.0324	256	0.082	195	–	–
B4	135	0.0324	43	0.0138	101	124	0.0473
B5	118	0.0286	86	0.0277	102	–	–
B6	71	0.017	33	0.0105	52	–	–
B7	386	0.093	32	0.0103	175	106	0.0408
B8	50	0.012	69	0.0222	59.5	–	–

What follows are molecules tested against T3, oncostatin M (hOSM, mature) (assay: competition; little activity in OSM/gp130 ELISA). Conditions: tags: expressed in E. coli as GST fusion, GST removed by thrombin cleavage.
Procedure: Effect of Point Mutations on the Ability of OSM-GST to Compete with Wild Type OSM Binding to gp130-Fc in an ELISA Nunc Immunoplates (F6 Maxisorp, Life Technologies) were coated overnight (4° C.) with wild type OSM (produced according to Example 7a); 50 µl/well, 1 µg/ml in carbonate/bicarbonate buffer pH 9.4). Plates were washed (×6 in PBS 0.05% tween 20, using Skatron Plate washer), tapped dry and blocked to reduce non-specific binding (200 µl/well, 1% BSA/PBS). Following 1 h incubation (room temperature on a shaking platform) the plates were tapped dry and wild type (wt) or mutant OSM-GST from Example 9b added (50 µl/well, 20–0.002 µg/ml, titrated in 1%BSA/PBS). As a positive control polyclonal anti-human OSM antibody (R&D Systems) was also tested (20–0.02 µg/ml). […] Following a 5 h incubation (room temperature on a shaking platform) the plates were washed (×6) and developed using ELISA Amplification System (Life Technologies) as manufacturer's instructions and the OD measured at 490 nm. On each plate the total binding was determined by gp130-Fc/conjugate and OSM in the presence of 1%BSA/PBS, and non-specific binding by gp130-Fc/conjugate in absence of OSM, or conjugate binding to OSM in absence of gp130-Fc. […]

Molecule	binding result
B9	no binding

The molecules below were run against T4, gp130-Fc fusion protein (assay: competition ELISA: OSM-GST titrated against plate-bound wt OSM for gp130-Fc; mean). Conditions: not given.
Procedure: (§1) Plates were washed (×6 in PBS 0.05% tween 20, using Skatron Plate washer), tapped dry and blocked to reduce non-specific binding (200 µl/well, 1% BSA/PBS). Following 1 h incubation (room temperature on a shaking platform) the plates were tapped dry and wild type (wt) or mutant OSM-GST from Example 9b added (50 µl/well, 20–0.002 µg/ml, titrated in 1%BSA/PBS). As a positive control polyclonal anti-human OSM antibody (R&D Systems) was also tested (20–0.02 µg/ml). […] Following a 5 h incubation (room temperature on a shaking platform) the plates were washed (×6) and developed using ELISA Amplification System (Life Technologies) as manufacturer's instructions and the OD measured at 490 nm.

Molecule	IC50 [µg/mL]
B1	0.044
B2	0.14
B3	0.223
B4	0.176
B5	0.239
B6	0.084
B7	0.382
B8	0.133

These molecules were tested against T4, gp130-Fc fusion protein (assay: competition ELISA: OSM-GST titrated against plate-bound wt OSM for gp130-Fc; single experiment). Conditions: not given.
Procedure: as §1

Molecule	IC50
B1	0.042 µg/mL and 0.036 µg/mL and 0.055 µg/mL
B2	0.145 µg/mL and 0.18 µg/mL and 0.094 µg/mL
B3	0.32 µg/mL and 0.18 µg/mL and 0.168 µg/mL
B4	0.14 µg/mL and 0.22 µg/mL and 0.167 µg/mL
B5	0.181 µg/mL and 0.255 µg/mL and 0.28 µg/mL
B6	0.108 µg/mL and 0.044 µg/mL and 0.101 µg/mL
B7	0.386 µg/mL and 0.359 µg/mL and 0.4 µg/mL
B8	0.199 µg/mL and 0.078 µg/mL and 0.121 µg/mL
